The text below walks through data of patent publication US20210238260.

Where a chain is given by its changes, count along the chain named. Numbers in names are those of the source.

B1: FIXa-D203N/F205T/R318Y/E410N (protein)
chain 1: YNSGKLEEFVQGNLERECMEEKCSFEEAREVFENTERTTEFWKQYVDGDQCESNPCLNGGSCKDDINSYECWCPFGFEGKNCELDVTCNIKNGRCEQFCKNSADNKVVCSCTEGYRLAENQKSCEPAVPFPCGRVSVSQTSKLTR
chain 2: VVGGEDAKPGQFPWQVVLNGKVNATCGGSIVNEKWIVTAAHCVETGVKITVVAGEHNIEETEHTEQKRNVIRIIPHHNYNAAINKYNHDIALLELDEPLVLNSYVTPICIADKEYTNIFLKFGSGYVSGWGRVFHKGYSALVLQYLRVPLVDRATCLRSTKFTIYNNMFCAGFHEGGRDSCQGDSGGPHVTEVEGTSFLTGIISWGEECAMKGKYGIYTKVSRYVNWIKNKTKLT
B2: FIXa-A103N/N105S/R318Y/R338E/R403E/E410N (protein)
chain 1: B1 chain 1 with A103N, N105S
chain 2: B1 chain 2 with N23D, T25F, R158E, R223E
B3: FIXa-K247N/N249S/N260S/R318Y/R338E/R403E/E410N (protein)
chain 1: B1 chain 1
chain 2: B1 chain 2 with N23D, T25F, K67N, N69S, N80S, R158E, R223E
B4: FIXa-D104N/K106S/Y155F/K247N/N249S/N260S (protein)
chain 1: B1 chain 1 with D104N, K106S
chain 2: B1 chain 2 with N23D, T25F, K67N, N69S, N80S, Y138R, N230E
B5: FIXa-D104N/K106S/K247N/N249S/N260S (protein)
chain 1: B1 chain 1 with D104N, K106S
chain 2: B1 chain 2 with N23D, T25F, K67N, N69S, N80S, Y138R, N230E
B6: FIXa-K247N/N249S/N260S (protein)
chain 1: B1 chain 1
chain 2: B1 chain 2 with N23D, T25F, K67N, N69S, N80S, Y138R, N230E
B7: FIXa-Y155F/K247N/N249S/N260S (protein)
chain 1: B1 chain 1
chain 2: B1 chain 2 with N23D, T25F, K67N, N69S, N80S, Y138R, N230E
B8: FIXa-Y155F/R318Y/R338E/R403E/E410N (protein)
chain 1: B1 chain 1
chain 2: B1 chain 2 with N23D, T25F, R158E, R223E
B9: FIXa-A103N/N105S/Y155F/R318Y/R338E/R403E/E410N (protein)
chain 1: B1 chain 1 with A103N, N105S
chain 2: B1 chain 2 with N23D, T25F, R158E, R223E
B10: FIXa-D104N/K106S/R318Y/R338E/R403E/E410N (protein)
chain 1: B1 chain 1 with D104N, K106S
chain 2: B1 chain 2 with N23D, T25F, R158E, R223E
B11: FIXa-D104N/K106S/Y155F/R318Y/R338E/R403E/E410N (protein)
chain 1: B1 chain 1 with D104N, K106S
chain 2: B1 chain 2 with N23D, T25F, R158E, R223E
B12: FIXa-K293A/R338A/R403A (protein)
chain 1: B1 chain 1
chain 2: B1 chain 2 with N23D, T25F, K113A, Y138R, R158A, R223A, N230E
B13: FIXa-K293E/R338E/R403E (protein)
chain 1: B1 chain 1
chain 2: B1 chain 2 with N23D, T25F, K113E, Y138R, R158E, R223E, N230E
B14: FIXa A103N/N105S/R318Y/R338E/R403E/E410N (protein)
chain 1: B1 chain 1 with A103N, N105S
chain 2: B1 chain 2 with N23D, T25F, R158E, R223E
B15: FIXa variant D104N/K106S/Y155F/K247N/N249S/N260S (mature FIX numbering) (protein)
chain 1: B1 chain 1 with D104N, K106S
chain 2: B1 chain 2 with N23D, T25F, K67N, N69S, N80S, Y138R, N230E
B16: FIXa variant K247N/N249S/N260S/R318Y/R338E/R403E/E410N (mature FIX numbering) (protein)
chain 1: B1 chain 1
chain 2: B1 chain 2 with N23D, T25F, K67N, N69S, N80S, R158E, R223E
B17: FIXa variant D104N/K106S/K247N/N249S/N260S (mature FIX numbering) (protein)
chain 1: B1 chain 1 with D104N, K106S
chain 2: B1 chain 2 with N23D, T25F, K67N, N69S, N80S, Y138R, N230E
B18: FIXa variant Y155F/K247N/N249S/N260S (mature FIX numbering) (protein)
chain 1: B1 chain 1
chain 2: B1 chain 2 with N23D, T25F, K67N, N69S, N80S, Y138R, N230E
B19: FIXa variant K247N/N249S/N260S (mature FIX numbering) (protein)
chain 1: B1 chain 1
chain 2: B1 chain 2 with N23D, T25F, K67N, N69S, N80S, Y138R, N230E
B20: FIXa A103N/N105S/Y155F/R318Y/R338E/R403E/E410N (protein)
chain 1: B1 chain 1 with A103N, N105S
chain 2: B1 chain 2 with N23D, T25F, R158E, R223E
B21: FIXa D104N/K106S/Y155F/R318Y/R338E/R403E/E410N (protein)
chain 1: B1 chain 1 with D104N, K106S
chain 2: B1 chain 2 with N23D, T25F, R158E, R223E
B22: FIXa D104N/K106S/R318Y/R338E/R403E/E410N (protein)
chain 1: B1 chain 1 with D104N, K106S
chain 2: B1 chain 2 with N23D, T25F, R158E, R223E
B23: FIXa Y155F/R318Y/R338E/R403E/E410N (protein)
chain 1: B1 chain 1
chain 2: B1 chain 2 with N23D, T25F, R158E, R223E
B24: FIXa variant R318Y/R338E/Y345A/N346D/R403E/E410N (mature FIX numbering) (protein)
chain 1: B1 chain 1
chain 2: B1 chain 2 with N23D, T25F, R158E, Y165A, N166D, R223E
B25: FIXa variant R318Y/R338E/Y345A/R403E/E410N (mature FIX numbering) (protein)
chain 1: B1 chain 1
chain 2: B1 chain 2 with N23D, T25F, R158E, Y165A, R223E
B26: FIXa variant R318Y/R338E/T343R/N346D/R403E/E410N (mature FIX numbering) (protein)
chain 1: B1 chain 1
chain 2: B1 chain 2 with N23D, T25F, R158E, T163R, N166D, R223E

Factor X, P00742, sequence (P00742 whole entry, looked up): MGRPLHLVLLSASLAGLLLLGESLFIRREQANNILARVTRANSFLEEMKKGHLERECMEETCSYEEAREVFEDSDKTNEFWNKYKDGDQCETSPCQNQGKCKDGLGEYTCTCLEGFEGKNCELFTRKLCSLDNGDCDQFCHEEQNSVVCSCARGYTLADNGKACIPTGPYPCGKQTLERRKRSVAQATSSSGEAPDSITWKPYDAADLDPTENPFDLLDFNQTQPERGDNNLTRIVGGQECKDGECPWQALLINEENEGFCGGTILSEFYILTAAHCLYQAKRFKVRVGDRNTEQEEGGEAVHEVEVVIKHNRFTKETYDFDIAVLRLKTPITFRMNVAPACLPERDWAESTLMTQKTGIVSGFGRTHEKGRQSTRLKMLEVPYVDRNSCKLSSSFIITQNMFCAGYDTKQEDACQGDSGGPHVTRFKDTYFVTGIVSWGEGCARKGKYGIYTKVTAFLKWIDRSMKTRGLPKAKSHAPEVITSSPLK

For one series, the target named is plasma purified human AT-III (antithrombin III). In words: same assay; ratio to K0.5 of Catalyst Biosciences WT FIXa.
As to B1, the K0.5-mut/K0.5-wt came out at 66.2.

Regarding B2, the K0.5-mut/K0.5-wt was 475.

Another series addresses plasma purified human antithrombin III (AT-III), in complex with unfractionated heparin (UFH). In words: ratio of K0.5 for AT-III/UFH inhibition, variant over Catalyst Biosciences WT FIXa.
With B3, the K0.5-mut/K0.5-wt came to 288 fold.

For the protein B4, the K0.5-mut/K0.5-wt stood at 35.8 fold.

As for B5, the K0.5-mut/K0.5-wt stood at 65.3 fold.

Turning to B6, the K0.5-mut/K0.5-wt was found to be 8.1 fold.

With B7, the K0.5-mut/K0.5-wt was 7.9 fold.

Another series deals with plasma purified human AT-III (antithrombin III). In words: same assay; ratio to K0.5 of Catalyst Biosciences WT FIXa; from lower limit value.
With B8, the K0.5-mut/K0.5-wt was greater than 517.

As for B9, the K0.5-mut/K0.5-wt was greater than 517.

For B10, the K0.5-mut/K0.5-wt was greater than 517.

On to B11, for which the K0.5-mut/K0.5-wt is greater than 517.

The target of the next series is antithrombin III (plasma purified human AT-III), used as the AT-III/unfractionated heparin complex. The experiment in a line: K0.5 ratio to Catalyst Biosciences WT FIXa, AT-III/UFH inhibition assay (from lower-limit K0.5).
Regarding B12, the K0.5-mut/K0.5-wt was greater than 51.7 fold.

On to B13, for which the K0.5-mut/K0.5-wt was greater than 51.7 fold.

The next series addresses T1, plasma purified human antithrombin III (AT-III), in complex with unfractionated heparin. In words: K0.5 of variant over K0.5 of Catalyst Biosciences WT FIXa; AT-III/UFH inhibition assay.
With B14, the K0.5-mut/K0.5-wt was 475.

In another series the target is T2, Antithrombin III (plasma purified human AT-III, Molecular Innovations). The experiment in a line: same assay; ratio of the lower-limit K0.5 to recombinant wild-type FIXa (Catalyst Biosciences WT).
Consider B12, for which the K0.5-mut/K0.5-wt is greater than 51.7.

For B13, the K0.5-mut/K0.5-wt was greater than 51.7.

Another series deals with T2, Antithrombin III (plasma purified human …). The experiment in a line: AT-III/UFH inhibition, standard assay (35 nM-0 nM AT-III); 999 nM is the assigned lower limit for less than 10% inhibition.
Regarding B12, the K0.5 is greater than 999 nM.

Take B13: the K0.5 is greater than 999 nM.

The target of the next series is T3, plasma purified human AT-III (antithrombin III), in complex with full-length unfractionated heparin (UFH). In words: ratio of K0.5 of the variant to K0.5 of Catalyst Biosciences WT FIXa, AT-III/UFH inhibition.
For the protein B15, the K0.5-mut/K0.5-wt is 35.8.

As to B16, the K0.5-mut/K0.5-wt was determined as 288.

B17: the K0.5-mut/K0.5-wt was found to be 65.3.

As to B18, the K0.5-mut/K0.5-wt was determined as 7.9.

As for B19, the K0.5-mut/K0.5-wt was determined as 8.1.

In the next series the target is plasma purified human AT-III (Molecular Innovations), in complex with low molecular weight heparin.
Assay: not given
B12 came in with a K0.5 of 497 nM and a K0.5-mut/K0.5-wt of 16.9 fold.

The protein B13 registered a K0.5 of 418 nM and a K0.5-mut/K0.5-wt of 14.2 fold.

The next series has as its target Factor X, P00742.
Assay: not given
A word on the KM: it is the substrate concentration at which the rate is half of its maximum. For the protein B12, the KM is 65.4 nM.

For orientation: kcat means the maximal rate divided by the concentration of active sites. The term kcat/KM denotes the second-order rate constant that governs catalysis at low substrate concentration. Turning to B3, the “% of WT kcat/KM” value was found to be 217%, the kcat amounted to 6 s⁻¹ and the kcat/KM came out at 9.7e+07 M⁻¹ s⁻¹.

In the case of B8, the KM is 30.4 nM.

Turning to B4, the “% of WT kcat/KM” value is 18%, the catalytic constant (kcat) was 0.5 s⁻¹ and the kcat/KM was determined as 8.2e+06 M⁻¹ s⁻¹.

Turning to B5, the “% of WT kcat/KM” value was determined as 22%, the kcat turned out to be 0.6 s⁻¹ and the kcat/KM was determined as 9.8e+06 M⁻¹ s⁻¹.

In the case of B1, the Michaelis-Menten constant (KM) amounted to 45.7 nM.

With B2, the KM amounted to 44.7 nM.

In the case of B9, the Michaelis-Menten constant (KM) was 50.7 nM.

Consider B13, for which the KM is 50 nM.

B10: the KM is 38.5 nM.

With B7, the “% of WT kcat/KM” value is recorded as 43%, the kcat came out at 1.8 s⁻¹ and the kcat/KM was 1.9e+07 M⁻¹ s⁻¹.

Consider B11, for which the KM amounted to 48 nM.

The target in another series is Factor X (FX), P00742.
Factor X (FX), P00742, sequence (P00742 whole entry, looked up): as above
Assay: not given
On to B12, for which the “% of WT kcat/KM” value worked out at 55%, the kcat turned out to be 1.6 s⁻¹ and the specificity constant (kcat/KM) amounted to 2.5e+07 M⁻¹ s⁻¹.

On to B3, for which the KM came to 62.2 nM and the kcat of FX activation by FIXa (Xase complex with FVIIIa, PC/PS vesicles, Ca2+) worked out at 3.4 s⁻¹.

With B20, the KM worked out at 50.7 nM.

In the case of B8, the catalytic constant (kcat) was found to be 5.3 s⁻¹.

As for B4, the Michaelis constant (KM) was determined as 68.5 nM and the kcat of FX activation by FIXa (Xase complex with FVIIIa, PC/PS vesicles, Ca2+) is 0.5 s⁻¹.

Consider B5, for which the Michaelis constant (KM) is 61.2 nM and the kcat of FX activation by FIXa (Xase complex with FVIIIa, PC/PS vesicles, Ca2+) is 0.6 s⁻¹.

Take B1: the kcat turned out to be 1.6 s⁻¹.

Turning to B6, the Michaelis-Menten constant (KM) turned out to be 114 nM and the kcat of FX activation by FIXa (Xase complex with FVIIIa, PC/PS vesicles, Ca2+) was found to be 3.3 s⁻¹.

Consider B14, for which the Michaelis constant (KM) came out at 44.7 nM.

With B2, the kcat worked out at 5.4 s⁻¹.

Take B21: the KM worked out at 48 nM.

With B9, the catalytic constant (kcat) stood at 6.4 s⁻¹.

As to B13, the “% of WT kcat/KM” value was found to be 37%, the kcat was 0.8 s⁻¹ and the kcat/KM was found to be 1.7e+07 M⁻¹ s⁻¹.

On to B10, for which the kcat was determined as 5.7 s⁻¹.

Regarding B22, the KM came out at 38.5 nM.

Consider B7, for which the Michaelis constant (KM) amounted to 96.5 nM and the kcat of FX activation by FIXa (Xase complex with FVIIIa, PC/PS vesicles, Ca2+) was 1.8 s⁻¹.

Consider B23, for which the KM was 30.4 nM.

Turning to B11, the catalytic constant (kcat) was 8.5 s⁻¹.

For a further series, the target named is T1, plasma purified human antithrombin III …. In words: K0.5 of variant over K0.5 of Catalyst Biosciences WT FIXa; AT-III/UFH inhibition assay; from lower limit K0.5.
Protein B20 registered a K0.5-mut/K0.5-wt greater than 517.

In turn, B21 came in with a K0.5-mut/K0.5-wt greater than 517.

In the case of B22, the K0.5-mut/K0.5-wt is greater than 517.

In turn, B23 returned a K0.5-mut/K0.5-wt greater than 517.

The next series has as its target T3, plasma purified human AT-III …. In words: ratio of K0.5 (lower-limit value) of the variant to K0.5 of Catalyst Biosciences WT FIXa, AT-III/UFH inhibition.
For the protein B24, the K0.5-mut/K0.5-wt came out at 517.

As to B25, the K0.5-mut/K0.5-wt was determined as 517.

For B26, the K0.5-mut/K0.5-wt turned out to be 517.
